Test results as given in patent publication US20240261333A1 (published 2024).

How the values were obtained:
Test in all cases: co-IP with mouse anti-FLAG from lysate of cells overexpressing N-FLAG B3GNT2, then mass spectrometry
[1] = molecular target: T1, CAPRIN1 (human, UniProt Q14444 2-709)
T1 construct: Identified by mass spectrometry in the co-IP; also called NP_005889.3 (+1)
T1 sequence (looked up): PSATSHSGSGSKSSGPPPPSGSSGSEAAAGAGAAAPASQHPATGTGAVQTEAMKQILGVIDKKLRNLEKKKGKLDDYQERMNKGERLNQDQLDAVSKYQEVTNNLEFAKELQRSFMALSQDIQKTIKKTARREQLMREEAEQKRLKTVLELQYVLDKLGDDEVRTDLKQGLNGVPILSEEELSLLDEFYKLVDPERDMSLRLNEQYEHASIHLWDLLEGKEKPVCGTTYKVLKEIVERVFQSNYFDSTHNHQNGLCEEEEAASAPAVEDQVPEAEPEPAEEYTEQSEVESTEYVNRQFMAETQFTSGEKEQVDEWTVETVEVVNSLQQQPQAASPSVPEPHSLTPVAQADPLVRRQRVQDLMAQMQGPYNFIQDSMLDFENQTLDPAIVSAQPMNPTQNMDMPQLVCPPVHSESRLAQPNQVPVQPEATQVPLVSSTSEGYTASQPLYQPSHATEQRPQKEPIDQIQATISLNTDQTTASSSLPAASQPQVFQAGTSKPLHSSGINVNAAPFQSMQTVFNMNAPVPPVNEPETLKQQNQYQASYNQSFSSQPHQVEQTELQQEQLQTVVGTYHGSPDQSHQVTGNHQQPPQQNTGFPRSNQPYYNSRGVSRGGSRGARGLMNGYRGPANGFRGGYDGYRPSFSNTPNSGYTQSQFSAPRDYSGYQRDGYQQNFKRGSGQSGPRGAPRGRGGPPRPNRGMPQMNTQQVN
Description: (§1) Cells were plated in 10-cm cell culture dishes and grown to 60-80% confluency. For each condition, two biological replicates were harvested for co-IP. Cells were washed with PBS and 4 mL of lysis buffer (20 mM HEPES, 1% Triton X-100, 150 mM NaCl, 1 mM EDTA, and 10% glycerol) containing protease inhibitor cocktail was added. Cells were scraped and lysate was incubated at 4° C. under rotary agitation for 1 h. Lysate was centrifuged at 14,000×g for 10 min at 4° C. Supernatant was transferred to a new tube and an aliquot was taken as the input. […] For Western blots, 10 μg/mL Chicken Anti-FLAG (Aves labs ET-DY100) and IgY control (R&D Systems AB-101-C) antibodies were biotinylated (Thermo Fisher Scientific 90407) and added to the respective conditions. Lysates with antibodies were incubated at 4° C. under rotary agitation overnight. For each mL of lysate, 50 μL of Pierce Protein A/G Magnetic Beads (Mass spectrometry; Thermo Fisher Scientific 88803) or Pierce Streptavidin Magnetic Beads (Western blot; Thermo Fisher Scientific 88817) was washed twice with lysis buffer. Lysates with antibodies were added to the beads and incubated at 4° C. under rotary agitation for 4 h. Beads were washed with lysis buffer 3 times and resuspended in lysis buffer for storage.
(§2) Magnetic beads were resuspended in 100 mM Tris pH 7.8, reduced, alkylated and digested with trypsin at 37° ° C. overnight. This solution was subjected to solid phase extraction to concentrate the peptides and remove unwanted reagents followed by injection onto a Shimadzu HPLC with fraction collector. Eight fractions were collected and after concentration were injected on a Waters NanoAcquity HPLC equipped with a self-packed Aeris 3 μm C18 analytical column 0.075 mm by 20 cm, (Phenomenex). Peptides were eluted using standard reverse-phase gradients. The effluent from the column was analyzed using a Thermo Orbitrap Elite mass spectrometer (nanospray configuration) operated in a data dependent manner for 54 minutes. The resulting fragmentation spectra were correlated against the known database using Proteome Discover 1.4 (Thermo Fisher Scientific).

[2] = molecular target: T2, PABPC1 (human, UniProt P11940 1-636)
T2 construct: Identified by mass spectrometry in the co-IP; also called NP_002559.2
Description: as §1, §2

[3] = molecular target: T3, TCP1 (human, UniProt P17987 1-556)
T3 construct: Identified by mass spectrometry in the co-IP; also called NP_110379.2
Description: as §1, §2

[4] = molecular target: T4, SUPT16H (human, UniProt Q9Y5B9 2-1047)
T4 construct: Identified by mass spectrometry in the co-IP; also called NP_009123.1 (+1)
Description: as §1, §2

[5] = molecular target: T5, KHDRBS1 (human, UniProt Q07666 1-443)
T5 construct: Identified by mass spectrometry in the co-IP; also called NP_006550.1
Description: as §1, §2

[6] = molecular target: T6, TIMP3 (human, UniProt P35625 24-211)
T6 construct: Identified by mass spectrometry in the co-IP; also called NP_000353.1
T6 sequence (looked up): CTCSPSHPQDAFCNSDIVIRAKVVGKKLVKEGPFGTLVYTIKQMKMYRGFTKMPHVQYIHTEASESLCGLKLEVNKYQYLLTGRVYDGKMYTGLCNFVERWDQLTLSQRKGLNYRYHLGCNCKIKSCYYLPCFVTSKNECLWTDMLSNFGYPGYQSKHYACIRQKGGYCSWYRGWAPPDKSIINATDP
Description: as §1, §2

T2 sequence (P11940 whole entry): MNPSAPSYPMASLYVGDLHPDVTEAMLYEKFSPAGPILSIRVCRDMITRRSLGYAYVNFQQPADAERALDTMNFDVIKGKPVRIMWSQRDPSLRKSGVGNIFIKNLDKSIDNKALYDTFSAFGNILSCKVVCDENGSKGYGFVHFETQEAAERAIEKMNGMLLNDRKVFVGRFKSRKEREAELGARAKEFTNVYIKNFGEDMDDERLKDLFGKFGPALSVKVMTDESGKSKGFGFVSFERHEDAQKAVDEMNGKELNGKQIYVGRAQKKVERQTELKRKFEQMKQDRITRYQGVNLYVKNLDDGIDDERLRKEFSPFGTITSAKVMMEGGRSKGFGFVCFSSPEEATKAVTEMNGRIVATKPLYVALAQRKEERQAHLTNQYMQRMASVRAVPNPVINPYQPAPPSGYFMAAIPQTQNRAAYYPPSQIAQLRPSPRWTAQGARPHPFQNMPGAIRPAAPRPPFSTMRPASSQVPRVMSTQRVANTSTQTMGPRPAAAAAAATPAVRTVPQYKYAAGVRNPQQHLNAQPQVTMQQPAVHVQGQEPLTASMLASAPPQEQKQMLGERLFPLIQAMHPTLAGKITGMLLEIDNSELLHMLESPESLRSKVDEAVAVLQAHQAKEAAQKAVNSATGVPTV
T5 sequence (Q07666 whole entry): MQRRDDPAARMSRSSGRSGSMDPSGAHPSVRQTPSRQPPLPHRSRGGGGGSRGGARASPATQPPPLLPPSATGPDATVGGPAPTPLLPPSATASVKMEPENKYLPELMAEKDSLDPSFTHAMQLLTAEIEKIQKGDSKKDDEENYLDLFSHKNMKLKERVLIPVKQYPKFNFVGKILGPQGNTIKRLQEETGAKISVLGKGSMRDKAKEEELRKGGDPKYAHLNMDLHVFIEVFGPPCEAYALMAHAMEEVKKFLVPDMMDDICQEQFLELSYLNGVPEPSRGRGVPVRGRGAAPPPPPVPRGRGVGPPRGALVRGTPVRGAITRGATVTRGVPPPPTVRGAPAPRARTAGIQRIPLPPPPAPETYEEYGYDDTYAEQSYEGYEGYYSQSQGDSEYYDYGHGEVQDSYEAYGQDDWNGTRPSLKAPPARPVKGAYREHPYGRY
T3 sequence (P17987 whole entry): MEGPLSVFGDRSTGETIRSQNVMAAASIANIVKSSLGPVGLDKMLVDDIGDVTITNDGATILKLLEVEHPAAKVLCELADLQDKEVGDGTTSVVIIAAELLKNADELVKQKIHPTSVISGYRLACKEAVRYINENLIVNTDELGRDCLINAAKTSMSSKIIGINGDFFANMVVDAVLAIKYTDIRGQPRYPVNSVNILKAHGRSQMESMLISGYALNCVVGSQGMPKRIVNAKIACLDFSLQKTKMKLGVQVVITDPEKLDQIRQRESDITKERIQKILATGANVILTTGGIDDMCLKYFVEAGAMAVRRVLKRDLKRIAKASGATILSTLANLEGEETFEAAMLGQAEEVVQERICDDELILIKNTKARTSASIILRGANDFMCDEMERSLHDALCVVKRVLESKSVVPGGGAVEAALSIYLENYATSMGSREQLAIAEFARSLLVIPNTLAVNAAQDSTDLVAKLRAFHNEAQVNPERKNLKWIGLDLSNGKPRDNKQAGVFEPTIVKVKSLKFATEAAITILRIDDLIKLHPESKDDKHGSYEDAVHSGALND
T4 sequence (Q9Y5B9 2-1047 limits assumed): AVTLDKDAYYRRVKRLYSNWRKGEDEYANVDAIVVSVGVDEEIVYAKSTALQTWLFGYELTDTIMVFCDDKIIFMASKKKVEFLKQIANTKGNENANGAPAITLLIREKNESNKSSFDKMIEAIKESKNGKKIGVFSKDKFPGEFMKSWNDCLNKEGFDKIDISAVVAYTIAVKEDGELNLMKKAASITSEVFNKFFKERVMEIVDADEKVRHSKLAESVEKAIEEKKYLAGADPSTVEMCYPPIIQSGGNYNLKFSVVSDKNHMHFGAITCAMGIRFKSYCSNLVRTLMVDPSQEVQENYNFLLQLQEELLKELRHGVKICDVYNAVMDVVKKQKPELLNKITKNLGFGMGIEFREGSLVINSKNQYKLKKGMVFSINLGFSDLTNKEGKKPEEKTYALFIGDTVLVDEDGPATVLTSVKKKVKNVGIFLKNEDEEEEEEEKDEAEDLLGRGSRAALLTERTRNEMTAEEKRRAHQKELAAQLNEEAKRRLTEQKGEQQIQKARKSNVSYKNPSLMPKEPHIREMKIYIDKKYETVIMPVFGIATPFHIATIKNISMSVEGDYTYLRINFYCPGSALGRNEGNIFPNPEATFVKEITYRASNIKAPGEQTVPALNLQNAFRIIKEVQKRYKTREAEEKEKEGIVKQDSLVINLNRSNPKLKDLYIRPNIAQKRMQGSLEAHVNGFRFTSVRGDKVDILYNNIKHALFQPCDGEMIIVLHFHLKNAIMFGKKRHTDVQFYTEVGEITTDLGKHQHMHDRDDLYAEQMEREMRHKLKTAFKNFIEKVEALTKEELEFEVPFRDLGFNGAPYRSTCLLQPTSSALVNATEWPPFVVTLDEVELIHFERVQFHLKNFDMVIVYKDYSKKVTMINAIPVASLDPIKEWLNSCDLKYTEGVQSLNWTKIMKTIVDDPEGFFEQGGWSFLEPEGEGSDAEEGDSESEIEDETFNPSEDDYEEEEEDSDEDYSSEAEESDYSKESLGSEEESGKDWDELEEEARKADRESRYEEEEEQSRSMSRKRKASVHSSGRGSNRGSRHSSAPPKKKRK

B1: N-terminal FLAG tagged B3GNT2 (enzyme, human, UniProt Q9NY97 1-397, looked up)
chain: MSVGRRRIKLLGILMMANVFIYFIMEVSKSSSQEKNGKGEVIIPKEKFWKISTPPEAYWNREQEKLNRQYNPILSMLTNQTGEAGRLSNISHLNYCEPDLRVTSVVTGFNNLPDRFKDFLLYLRCRNYSLLIDQPDKCAKKPFLLLAIKSLTPHFARRQAIRESWGQESNAGNQTVVRVFLLGQTPPEDNHPDLSDMLKFESEKHQDILMWNYRDTFFNLSLKEVLFLRWVSTSCPDTEFVFKGDDDVFVNTHHILNYLNSLSKTKAKDLFIGDVIHNAGPHRDKKLKYYIPEVVYSGLYPPYAGGGGFLYSGHLALRLYHITDQVHLYPIDDVYTGMCLQKLGLVPEKHKGFRTFDIEEKNKNNICSYVDLMLVHSRKPQEMIDIWSQLQSAHLKC
notes: FLAG-tagged ORF overexpressed in A375 cells; bait of the co-IP with mouse anti-FLAG; also called N-FLAG B3GNT2; N-term FLAG; not shown: N-terminal FLAG tag
co-IP mass spectrometry count (N-term FLAG) [1]: 7 | co-IP mass spectrometry count (N-term FLAG) [2]: 31 | co-IP mass spectrometry count (N-term FLAG) [3]: 0 | co-IP mass spectrometry count (N-term FLAG) [4]: 0 | co-IP mass spectrometry count (N-term FLAG) [5]: 9 | co-IP mass spectrometry count (N-term FLAG) [6]: 0
